According to publication PMC7522082, “A simple procedure for bacterial expression and purification of the fragile X protein family”:

What was measured:
His6-MBP-FMRP P451S [1] = target: T1, His6-MBP-FMRP P451S (Homo sapiens, UniProt Q06787 1-632, P451S); test: fluorescence anisotropy; 75 mM K+, 5 mM Mg2+; FA: 20 mM Tris pH 7.5, 75 mM KCl, 5 mM MgCl2, 1 uM BSA, 1 mM DTT, 100 ng/uL tRNA, ~5 nM RNA, RT 1 h; EMSA: 50 mM Tris pH 7.5, 145 mM KCl, 5 mM MgCl2, 1 uM BSA
[2] = target: T2, His6-MBP-FXR2P P474S and P493N (Homo sapiens, UniProt P51116 1-673, P474S;P493N); test: as above; conditions: protein: recombinant; tags: N-terminal His6-MBP; label: 3' fluorescein; G-quadruplex forming
His6-MBP-FMRP P451S [3] = target: T1, His6-MBP-FMRP P451S; test: EMSA; 250 nM protein; FA: 20 mM Tris pH 7.5, 75 mM KCl, 5 mM MgCl2, 1 uM BSA, 1 mM DTT, 100 ng/uL tRNA, ~5 nM RNA, RT 1 h; EMSA: 50 mM Tris pH 7.5, 145 mM KCl, 5 mM MgCl2, 1 uM BSA
[4] = target: T2, His6-MBP-FXR2P P474S and P493N; test: as above; conditions: protein: recombinant, tags: N-terminal His6-MBP

T2 sequence (P51116 whole entry P474S/P493N): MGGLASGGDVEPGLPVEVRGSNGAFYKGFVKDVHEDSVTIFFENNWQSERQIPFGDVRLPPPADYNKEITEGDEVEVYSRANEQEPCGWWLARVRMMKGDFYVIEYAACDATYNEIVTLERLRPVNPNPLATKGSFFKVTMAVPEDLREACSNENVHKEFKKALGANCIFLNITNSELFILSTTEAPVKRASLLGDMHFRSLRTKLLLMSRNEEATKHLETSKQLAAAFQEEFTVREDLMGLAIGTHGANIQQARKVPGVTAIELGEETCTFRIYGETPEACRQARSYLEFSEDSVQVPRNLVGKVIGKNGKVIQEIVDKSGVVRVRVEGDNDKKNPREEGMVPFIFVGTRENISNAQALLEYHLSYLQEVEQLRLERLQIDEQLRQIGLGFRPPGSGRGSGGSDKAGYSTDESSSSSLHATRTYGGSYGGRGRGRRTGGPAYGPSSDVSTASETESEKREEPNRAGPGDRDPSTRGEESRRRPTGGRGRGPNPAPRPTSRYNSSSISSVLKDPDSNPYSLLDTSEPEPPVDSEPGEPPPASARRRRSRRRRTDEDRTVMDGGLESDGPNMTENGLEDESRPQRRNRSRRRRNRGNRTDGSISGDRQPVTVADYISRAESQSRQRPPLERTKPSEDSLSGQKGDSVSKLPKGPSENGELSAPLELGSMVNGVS

Row | Binder | Kd (His6-MBP-FMRP P451S [1]) [nM] | Kd [2] [nM] | binding result (His6-MBP-FMRP P451S [3]) | binding result ([4]; label: 3' fluorescein, single strand, no predicted G-quadruplex) | binding result ([4]; label: 3' fluorescein (FTSC, periodate-oxidized 3' end), loop-loop pseudoknot (kissing complex))
1 | GGGGGGGGGGGGGGGGGU (structured_RNA) [poly-G17U] | 5.6 | 3.1 ± 0.4 | – | – | –
2 | GCUAUCCAGAUUCUGAUU (ssRNA) [CR1] | – | – | no binding | no binding | –
3 | ΔKC2 (structured_RNA) RNA: GGGCGAAUUCGGGAUUCCGACCAGAAGGGGCUAAGGAAUGGUGGGACGAGCUAGCGGCUGGUAUGUGCGUCU | – | – | binds | – | binds
